In the DeepSol protein solubility set:

Experiment: soluble on expression in E. coli; label from the status in PepcDB or PDB records
In the case of “MGSDKIHHHHHHMKVIKFGGSSLASGIQLNKVFQLVAEDSERKIVVVSAPGKRFKDDTKVTDLLIDCAAKALLGEDTSELFEAVIARYAGIALDTGMDDAIITQIRADLQKTISSDKSDPDKFLDRMKASGEDNNAKLIAAYFKFKGLNANYVNPKDAGLFVTDEHASAQVLPESYDRLFALREREGIIVFPGFFGYTKDGEISTFSRSGSDITGAIVANGAQAELYENFTDVDAVYAVNPAIVKNPKKVLELTYREMRELSYAGFSVFHDEALIPAFHAGIPVHIKNTNNPDSCGTRVVHERENNNGPVVGIASDDGFCSIYISKYLMNREIGFGRKVLQILEDAGLNYEHMPSGIDDLTIIIRENQFGEDTERTIMTRLKEELNADQVIMQHGISLIMVVGEAMRHNVGITSRASKALSDAKVNIEMINQGSSEVSIMFGVKEEQENTAVRALYNEFFSEVLV”, the “soluble on expression in E. coli” value is reported as “not soluble”.
In the case of “MIKSITIRTSREFEIIDITKEVERVVRESNVKSGIVVVFTRHTTTALTINENESGLKRDIEEILSKLVPKGMNYFHDRIDNNAHSHLRGILLGPSLTIPVEDGRLLLGTWQSILFVELDGPRTREVYVKVCECLEHHHHHH”, the “soluble on expression in E. coli” value is reported as “soluble”.
For “MAHMNLLSVTTGDGGLSRYLEEVRRFPMLEPQEEYMLAQRYRKHNDLKAAHKLVTSHLRLVAKIAVGYRGYGLPIGEVISEGNVGLMKAVKRFEPERGFRLATYAIWWIKASIQEYVLRSWSLVKMGTTANQKRLFFNLRKLKSRLQALDNGDLNAEQVKEIAIQLNVTEDEVVSMNRRLGGDTSLNAPLRTKEGENSEWQDWLVDDSNNQEQTLIEQNELENRRSMLTNALDNLNEREKRIFKARRLSDIPLTLEELSSEFNISRERVRQIEMRAFEKIQNSIKASALSQNQV”, the “soluble on expression in E. coli” value was “not soluble”.
For “MIIDGHTHVILPVEKHIKIMDEAGVDKTILFSTSIHPETAVNLRDVKKEMKKLNDVVNGKTNSMIDVRRNSIKELTNVIQAYPSRYVGFGNVPVGLSENDTNSYIEENIVNNKLVGIGELTPASGQIKSLKPIFKYSMDSGSLPIWIHAFNPLVLQDIKEIAELCKAFPKVPVILGHMGGSNWMTAVELAKEIQNLYLDTSAYFSTFVLKIVINELPLKCIFGTDMPFGDLQLSIEAIKKMSNDSYVANAVLGDNISRLLNIMAGDPLEHHHHHH”, the “soluble on expression in E. coli” value was “not soluble”.
In the case of “MIIYVSACRHAVCSETVLDVLGNVSEKMKKGIELARSVAHLELCQDKITFQRRYVAIEFDEDELLDGKSSILAVAVSIYFAIVGLRVPSDLMITGSLNLKGTVIPISGLDKTVKVIKLRITLSGSSSA”, the “soluble on expression in E. coli” value is reported as “not soluble”.
For “PMILGYWNVRGLTHPIRLLLEYTDSSYEEKRYAMGDAPDYDRSQWLNEKFKLGLDFPNLPYLIDGSRKITQSNAIMRYLARKHHLCGETEEERIRADIVENQVMDNRMQLIMLCFNPDFEKQKPEFLKTIPEKMKLYSEFLGKRPWFAGDKVTYVDFLAYDILDQYHIFEPKCLDAFPNLKDFLARFEGLKKISAYMKSSRYLSTPIFSKLAQWSNK”, the “soluble on expression in E. coli” value was “soluble”.
In the case of “MEELASLTKTADGKVLTSVTQKRNRADAATYIGKGKVEELKALVEELEADLLIFNDELSPSQLKSLATAIEVKMIDRTQLILDILAKRARTREGKLQIELAQLQYALPRLTGQGINLSRQGGGIGARGPGETKLETDRRHIRNRIHEINTQVSTVIRHRSRYRERRKKNGVLQIALVGYTNAGKSTWFNRLTSADSYEEDLLFATLDPMTRKMVLPSGYSVLLSDTVGFIQDLPTTLIAAFRSTLEEVKEADLILHLIDSSNEDYAGHEKTVLRLLEELEADDIPMLTAYNKRDQKLPDFYRPPEGITLWSVRNLRTTLQPLKKRFSAICAKNCLEHHHHHH”, the “soluble on expression in E. coli” value is reported as “not soluble”.
In the case of “MDNCNAWDKLLSQNESTINSTETATITAIIYSPSSKTLHQFINICFPEGSNSILDTTLINYATIGWTNDLKENYSVDVYTLIRNTDDALDLLKPFLQEHSSKVRWLILLDWTLNDQKLWLNELSYAFNKIKQLNDDNEFSVWCLNSGEILNLQRHTTVWQSVHIDFILQTLRSFCYFNDSSLFYICEDHTEEKREEAQRLKYQELLKHFCEDRDMKDHIEMVKRSEILIPKGCDSIGLIKTVDERFEPTEVKEQHFLARYMDFIPTIDKIREDRKTTSGIDLDKLYPLEVFKVNIQEELGKMFAKYRENSRI”, the “soluble on expression in E. coli” value is reported as “soluble”.
With “MGHHHHHHSHMSDAGMPSLSDPGMSLAAYALKHNIQYDVLPGANALTTAFCASGFLEGRFFYAGFLPHKSKERRLKIAKILNALAYLEEKTPVVFYESPHRLLETLKDLNDLAKGMHLFAAKELTKLHQQYYLGEVSQIIERLQQSTIQGEWVLVLLNEKKIEPCMGLSALLELDLPPKIKAKIEAVMTQKNAKELYFQRLLEEKNQ” the “soluble on expression in E. coli” value was “not soluble”.
For “MSLRKVIGIGETILDIIFRNDQPSAAVPGGSVFNGIVSLGRMGVNVCFISETGNDHVGNIILQFMRDNHIPTDHVNVFPDGKSPVSLAFLNEHSDAEYIFYKDYPKQRLDVLFPSINEDDIIVIGSYYALNPVLRDKILELLDIAKEKRAIVYYDPNFRSSHKNEAMKLAPTIIENLEYADIVRGSLEDFYYMYGIKDVEKIYKDKIKFYCPLFLCTAGAERISLRTNAISKEYPVAPLEAVSTIGAGDNFNAGLIYGMLKYDVRYRDLQHLSEETWDKVIQCGQDFAAEVCKSFNNSISGEFAANYREGHHHHHH”, the “soluble on expression in E. coli” value was “soluble”.
For “MTLAATLREADLFRSLPKGFVQCRACAHYCALPEGGAGKCGVRRNLGGRLYLVTYGKAAALHLDPVEKKPLYHFHPGEGILSVGTVGCNLFCAFCQNWQISQFREFRVSPEGRLDRPIGEDWPPKRLVAEAEALGVRLLAYTYNEPAVWIEYAHDTARLAKARGMKNVFVTSGFETKEAWDYIRPHLDAANVDLKGFTEKFYREVCGARLKPVLESLGHLVASGVWVEVTTLLLEGYNDSDEEVRAMARFLKGLSPDIPWHLTAAHPDYRMLDLRSTRHATLVRAHAIAKEEGLRFVYVGNVLDEERNSTYCPNCGRLLVRRRGYRVEALWEAPGVCPGCGQRIPGVWTW”, the “soluble on expression in E. coli” value was “soluble”.
For “MGHHHHHHSHMVAHNQVAADNAVSTAAEPRRRPEPSSSSSSSPAAPARPRPCPAVPAPAPGDTHFRTFRSHADYRRITRASALLDACGFYWGPLSVHGAHERLRAEPVGTFLVRDSRQRNCFFALSVKMASGPTSIRVHFQAGRFHLDGSRESFDCLFELLEHYVAAPRRMLGAPLRQRRVRPLQELCRQRIVATVGRENLARIPLNPVLRDYLSSFPFQI”, the “soluble on expression in E. coli” value was “not soluble”.
For “MSRTAVREAVKTLTAKGMVLPRPRIGTRVMPQSNWNFLDQELLTWWITEENFHQVIDHFLVMRICLEPQACLLAATVGTAEQKAHLNTLMAEMAALKENFRRERWIEVDMAWHEHIYEMSANPFLTSFASLFHSVYHTYFTSITSDTVIKLDLHQAIVDAIIQSDGDAAFKACQALLRSPDK”, the “soluble on expression in E. coli” value was “not soluble”.
In the case of “MSLNQTILNRVKTRVMHQLVSSLIYENIVVYKASYQDGVGHFTIEGHDSEYRFTAEKTHSFDRIRITSPIERVVGDEADTTTDYTQLLREVVFTFPKNDEKLEQFIVELLQTELKDTQSMQYRESNPPATPETFNDYEFYAMEGHQYHPSYKSRLGFTLSDNLKFGPDFVPNVKLQWLAIDKDKVETTVSRNVVVNEMLRQQVGDKTYEHFVQQIEASGKHVNDVEMIPVHPWQFEHVIQVDLAEERLNGTVLWLGESDELYHPQQSIRTMSPIDTTKYYLKVPISITNTSTKRVLAPHTIENAAQITDWLKQIQQQDMYLKDELKTVFLGEVLGQSYLNTQLSPYKQTQVYGALGVIWRENIYHMLIDEEDAIPFNALYASDKDGVPFIENWIKQYGSEAWTKQFLAVAIRPMIHMLYYHGIAFESHAQNMMLIHENGWPTRIALKDFHDGVRFKREHLSEAASHLTLKPMPEAHKKVNSNSFIETDDERLVRDFLHDAFFFINIAEIILFIEKQYGIDEELQWQWVKGIIEAYQEAFPELNNYQHFDLFEPTIQVEKLTTRRLLSDSELRIHHVTNPLGVGGINDATTISETEGHHHHHH”, the “soluble on expression in E. coli” value is reported as “soluble”.
For “MGSDKIHHHHHHMKKFTLDYLSPRVVFGAGTASALPDEIGRLGARRPLVLSSPEQRELAKDIVRPIGDRVAGYFDGATMHVPVDVIQKAERAFNDTDADSIIAIGGGSTTGLAKILSMNLDVPSLVIPTTYAGSEMTTIWGVTEGGMKRTGRDPKVLPKTVIYDPLLTVDLPLAISVTSALNAIAHAAEGLYSADLNPVLETMCKQGICALFDAIPRLVAKPTDAEARTDALFGAWMCGTALCHLGMGLHHKLCHTLGGTLNLPHAETHAIVLPHALAYNLPYAAPAERLLQEVAGSSDVPSALYDLARNAGAPLSLAEIGMRPEDIPRVRDLALRDQYPNPRPLESDALETLLVNAFRGRRPDFK”, the “soluble on expression in E. coli” value was “not soluble”.
In the case of “MGSDKIHHHHHHMRGWILYKETATQLKPEWYEIERLLAAAKADNIELEVYAPDEFDLTVTREDNKSILLNGQPVELPDFIIPRMGSGTTYFALAIIRHLERLGVYCLNPSKAIEIVKDKLFSQQLLAEKNLPTPKTMLVKFPVDIDLVERHLGFPVVIKTLSGSQGSGVFLSHKAREFDDLMQLIEATNKNANIILQEFIANSHGRDLRVFTIGGRVAGCYERRGQEDSFKANVSAGGSARPFDITPEIEWLATQTANILDLDVAGIDLLFDNGHYKICEANSSPGFEGLESCLNVDIAAQILHFIRIRLGMFNKDEKNSDPQLTHAGPALANNVTSSKAAE”, the “soluble on expression in E. coli” value is reported as “not soluble”.
For “GSELETAMETLINVFHAHSGKEGDKYKLSKKELKELLQTELSGFLDAQKDADAVDKVMKELDEDGDGEVDFQEYVVLVAALTVACNNFFWENS”, the “soluble on expression in E. coli” value was “soluble”.
With “MASKGAARVRKKEIVKVVHGALLRTNIKAQMASAAPPLGPQLGQRGLNVANFCKEFNKETGHFKQGVPLPTRITVKPDRTYDLEICTPTTTWLLKQAAGIGRGKASKDEIVGKLTVKHLYEIAKIKSRDKALQHVPLEQICRMLIKTCRTLGIDVQYHDLDPVELKEFLVARKEKVDAQLKDLADKKAAKMLRTT” the “soluble on expression in E. coli” value was “not soluble”.
For “MSLDSIKVKNEYEKLTGSDSVVRRGMFNVYQKKNDYYFEIPSTLLERDMLVVNKLQRVPAELNEAGVNRGTNYENQMIRFELDKSANKLLIRQSRPLPISPSEDAISQSVKDNYISPLIAGFKVEAYNNDSTSILIKVNDIYDGTETSINNVFTNINLGTSAIKNLSRILSIKSFDNNVVATSELTTRVTEGTTTIYVTVEVSSSILLLPEVPMTGRLDNPRVGYFTNPLTNFSDGQQRVNKKQFITRWRLEPRPEDRAAYLRGELVEPRKPIVFYIENSTPYRWRKYIKQGIEDWQVAFERAGFKNAIIAKDITEDMEVDMDDVNYSVLTYAASTKANAMGPSILDPRSGEILEADIMWWHNVLSMLQEWITVQTGVVRPEARGVALPDSLMGDAMRFVACHEVGHSLGLRHNMMGSWAFPTDSLRSKTFTDRMNSTSSSIMDYARFNYVAQPGDGIKALSPHIGPYDMFAIEYGYRWYGKQTPEEEKELLQDFLAKHTDRLYKYSEAQDPRDAVDPRAQNEDLGDDPIRSSQYGIANLKCIVPQIIQWTTTGEKGQTYEEASRLYYAVINQWNNYLYHVMANIGGIYIENTTVGDGEKTYTFVEKEKQQAALRFLLDEVLCYPKWLFDPEIAQYTYLLKNTPLGVVENAPTQVLKNAQAYVFWDLLSNNRLMRMLENESVNGKKAFTAVELMDGLHKSIFAVTERGGLPDVMTRNLQKGFVDALITAAAESEGVKVNKKLIDNHFLFDLQTPICSCDDHVHRSAHTDRMGARRELNFYGSQINRISDAISVKRGELLRIKDLLQSRLGTSDVATKYHYKDLILRINTALGISKEGHHHHHH”, the “soluble on expression in E. coli” value was “soluble”.
